Here are results for 2 molecules from US20160089393A1, “COMPOSITION AND METHODS FOR COMBATING ANTIBACTERIAL RESISTANT BACTERIA” (BLUEBERRY THERAPEUTICS LIMITED, priority 2013, published 2016).

Assay [1] relates to EMRSA-15. The assay can be described thus: MIC by broth microdilution (antibacterial susceptibility test of EMRSA-15). To be noted: Staphylococcus aureus, read-out: MIC of EMRSA-15 to oxacillin. The format is cell-based, methicillin-resistant Staphylococcus aureus (MRSA). The protocol: Antibacterial susceptibility test of EMRSA-15 was carried out according to NCCLS guidelines for broth micro broth dilution with modifications. EMRSA-15 was streaked from a −70° C. glycerol stock to Columbia base agar (Oxoid) supplemented with 5% horse blood (Oxoid) and 6 μg/ml oxacillin (Sigma), and incubated for 18-20 h at 33° C. Two to four bacterial colonies were inoculated into 3 ml Mueller Hinton broth (MHB, Oxoid) supplemented with 6 μg/ml oxacillin (Sigma) and incubated for 18-20 h at 33° C. with shaking at 180 rpm. Cultures were adjusted to OD625 0.08-0.1 (equivalent to 0.5 Mcfarland or 1-2×10^8 cfu/ml) with MHB and further diluted 1/50 to achieve a final concentration of 5×10^5 cfu per well. Susceptibility to either oxacillin, PHMB or peptides was tested by adding oxacillin (0-1024 μg/ml in MHB), PHMB (0-512 μg/ml in 1×PBS) or peptide (0-512 μg/ml in 1×PBS) to 75 μl of culture in a final volume of 150 μl per well. Plates were incubated at 33° C. for 24 h and growth was scored visually.

The subject of assay [2] is EMRSA-15. Kind of assay: Checkerboard synergy of PHMB and MecA peptides with oxacillin (FIC index). The format is cell-based, methicillin-resistant Staphylococcus aureus (MRSA). To be noted: Staphylococcus aureus. The protocol:
(§1) Synergy of PHMB and peptides (MecA3136, MecA3140) were tested by a standard checkerboard method of two-fold dilutions. PHMB and peptide were mixed at appropriate concentrations to a final volume of 30 μl in each well of a 96 well plate, and the mixtures were incubated at 20-22° C. for 30 mins before the addition of culture and oxacillin to a final volume of 150 μl. Plates were incubated and scored as above. FIC indices were calculated for wells without growth and containing the lowest combination of PHMB and peptide as follows: (A/MICA)+(B/MICB)=FICA+FICB=FIC index, where A is concentration of PHMB in combination, MICA is MIC of PHMB alone, B is concentration of peptide in combination, MICB is MIC of peptide alone. A control plate without oxacillin, and control wells of culture with increasing oxcaillin but without PHMB and peptide were included.

Assay [3] relates to EMRSA-15. The assay can be described thus: Oxacillin sensitization: growth of EMRSA-15 with peptide, oxacillin and fixed PHMB. The format is cell-based, methicillin-resistant Staphylococcus aureus (MRSA). Set-up: key: 1 is growth; 0 is no growth. The following applies: MecA3136 0 uM, PHMB 0.25 μg/ml. The method, then:
as §1, with “included. […]” for “included.”

Assay [4] relates to EMRSA-15. The assay is described as above. The format is cell-based, methicillin-resistant Staphylococcus aureus (MRSA). Set-up: key: 1 indicates growth; 0 indicates no growth. The following applies: PHMB 1 ug/ml. The protocol:
as §1, with “included. […]” for “included.”

Assay [5] concerns EMRSA-15. The description is as above. The format is cell-based, methicillin-resistant Staphylococcus aureus (MRSA). The protocol:
as §1, with “included. […]” for “included.”

In assay [6] the target is T1, MecA (Penicillin binding protein 2A, PBP2A) (Staphylococcus aureus, UniProt P07944).
T1 construct: The primers were designed so that the first 23 amino acids at the N terminus were deleted; GST (N, cleaved yes); primer-encoded linker LEVLFQGP-M (my own translation of the forward primer); made in house; host or cells: Escherichia coli BL21(DE3)
Kind of assay: In vitro binding to MecA and block of oxacillin binding. Also noted: species or system methicillin-resistant Staphylococcus aureus (MRSA). The method, then: For inhibitor screening recombinantly expressed and purified PBP2a is immobilised using an affinity tag to the surface of the wells of a microtiter plate. The wells are then incubated with serially diluted solutions of the peptide aptamer or indeed any possible inhibitor of PBP2a, plus a PBP2a substrate, such as BIO-AMP (Bobba et al. 2011) at a fixed concentration in PBS. After approximately 15 min, the binding reactions are stopped, and the plates were developed as described (Bobba et al. 2011). The background levels of fluorescence from control reactions are subtracted and then the inhibitor binding data are calculated and plotted to determine the Ki^app of binding.

T1 sequence (P07944 24-670): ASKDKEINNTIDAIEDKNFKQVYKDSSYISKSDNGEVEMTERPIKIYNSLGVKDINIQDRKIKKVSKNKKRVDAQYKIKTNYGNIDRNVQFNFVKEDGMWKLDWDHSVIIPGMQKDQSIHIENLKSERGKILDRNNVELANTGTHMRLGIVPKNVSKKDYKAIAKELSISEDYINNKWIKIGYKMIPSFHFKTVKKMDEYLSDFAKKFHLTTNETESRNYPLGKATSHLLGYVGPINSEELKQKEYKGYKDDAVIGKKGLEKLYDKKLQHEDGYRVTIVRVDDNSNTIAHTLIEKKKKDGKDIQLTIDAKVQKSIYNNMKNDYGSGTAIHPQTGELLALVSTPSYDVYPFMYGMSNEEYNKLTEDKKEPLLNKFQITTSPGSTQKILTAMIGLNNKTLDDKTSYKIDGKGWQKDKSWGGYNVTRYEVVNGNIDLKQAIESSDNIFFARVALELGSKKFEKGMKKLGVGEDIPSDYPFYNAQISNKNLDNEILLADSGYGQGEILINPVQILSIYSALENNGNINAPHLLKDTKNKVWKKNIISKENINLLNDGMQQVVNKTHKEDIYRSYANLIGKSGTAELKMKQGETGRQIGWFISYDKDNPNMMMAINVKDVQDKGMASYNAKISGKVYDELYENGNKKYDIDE

With `Cc1onc(-c2ccccc2)c1C(=O)N[C@@H]1C(=O)N2[C@@H]1SC(C)(C)[C@@H]2C(=O)O` [Oxacillin, oxacillin, reference compound], the MIC amounted to 256 µg/mL in assay [1] (MHB + 0.25 μg/ml PHMB); 128 µg/mL in assay [1] (MHB + 176 μg/ml MecA3136); 128 µg/mL in assay [1] (MHB + 176 μg/ml MecA3140); 128 µg/mL in assay [1] (MHB); 256 µg/mL in assay [2] (oxacillin alone, checkerboard set of experiments); 516 µg/mL in assay [2] (with PHMB and MecA3136 at certain concentrations). The “Growth of EMRSA-15” value in assay [3] (oxacillin 16 ug/ml) is on record as 1; in assay [3] (oxacillin 32 ug/ml), 1; in assay [3] (oxacillin 64 ug/ml), 1; in assay [3] (oxacillin 128 ug/ml) it was 1; in assay [3] (oxacillin 256 ug/ml), 0; in assay [4] (E1 0 ug/ml, oxacillin 8 ug/ml), 1. For the same molecule, the “Growth of EMRSA-15” value in assay [4] (E1 0 ug/ml, oxacillin 16 ug/ml) was determined as 1; in assay [4] (E1 0 ug/ml, oxacillin 32 ug/ml), 1; in assay [4] (E1 0 ug/ml, oxacillin 64 ug/ml), 1; in assay [4] (E1 0 ug/ml, oxacillin 128 ug/ml), 0; in assay [4] (HIW 0 ug/ml, oxacillin 16 ug/ml) it was 1; in assay [4] (HIW 0 ug/ml, oxacillin 32 ug/ml), 1. Also, the “Growth of EMRSA-15” value in assay [4] (HIW 0 ug/ml, oxacillin 64 ug/ml) was determined as 0.

B1: E1: MecA (PBP2A) binding peptide aptamer, Sequence ID No. 4; different scaffold to MecA3136 and MecA3140 (protein)
chain: ASAATGVRAVPGNENSLEIEELARFAVDEHNKKENALLEFVRVVKAKEQHWKAKLGHDTMYYLTLEAKDGGKKKLYEAKVWVKLIPTKDFHLNFKELQEFKPVGDAAAAHHHHHH
modifications: Peptide sequence E1
notes: different scaffold to MecA3136 and MecA3140
With B1, the “effect during the assay” value in assay [5] (oxacillin and 1 ug/ml PHMB) was “Sequence E1 is a different scaffold to MecA3136 and MecA3140, but in Table 11 shows a modest effect during the assay”. Further, the “enhancement of oxacillin activity” value in assay [5] (with PHMB) was “Clear enhancement of oxacillin activity”. Moreover, in assay [6], the “binding to MecA and block of oxacillin binding” value is “bind to MecA and block oxycillin binding to MecA”. For the same molecule, the “Growth of EMRSA-15” value in assay [4] (E1 5 ug/ml, oxacillin 0 ug/ml) worked out at 1; in assay [4] (E1 5 ug/ml, oxacillin 8 ug/ml), 1; in assay [4] (E1 5 ug/ml, oxacillin 16 ug/ml) it was 1; in assay [4] (E1 5 ug/ml, oxacillin 32 ug/ml), 1; in assay [4] (E1 5 ug/ml, oxacillin 64 ug/ml), 0; in assay [4] (E1 5 ug/ml, oxacillin 128 ug/ml), 0. The “Growth of EMRSA-15” value amounted to 1 in assay [4] (E1 10 ug/ml, oxacillin 0 ug/ml); 1 in assay [4] (E1 10 ug/ml, oxacillin 8 ug/ml); 1 in assay [4] (E1 10 ug/ml, oxacillin 16 ug/ml); 1 in assay [4] (E1 10 ug/ml, oxacillin 32 ug/ml); 0 in assay [4] (E1 10 ug/ml, oxacillin 64 ug/ml); 0 in assay [4] (E1 10 ug/ml, oxacillin 128 ug/ml). The “Growth of EMRSA-15” value worked out at 1 in assay [4] (E1 20 ug/ml, oxacillin 0 ug/ml); 1 in assay [4] (E1 20 ug/ml, oxacillin 8 ug/ml); 1 in assay [4] (E1 20 ug/ml, oxacillin 16 ug/ml); 0 in assay [4] (E1 20 ug/ml, oxacillin 32 ug/ml); 0 in assay [4] (E1 20 ug/ml, oxacillin 64 ug/ml); 0 in assay [4] (E1 20 ug/ml, oxacillin 128 ug/ml).
